According to publication PMC7157747:

Molecular target: Recombinant Surface Immunogenic Protein (rSIP) of Group B Streptococcus, expressed in E. coli (Group B Streptococcus (GBS), serotype III)
Experiment: SEC; Size exclusion chromatography by HPLC of purified rSIP; PSS-pro kit as standard curve for molecular mass; 6 M urea used as monomer control

Recombinant Surface Immunogenic Protein (rSIP) of Group B Streptococcus, expressed in E. coli (natural protein)
stoichiometry N: 2
